Measured values taken from paper PMC3547664.

Tested on: T1, PhoB (Bacteroides fragilis YCH46), ORF:3d02aa67
T1 sequence: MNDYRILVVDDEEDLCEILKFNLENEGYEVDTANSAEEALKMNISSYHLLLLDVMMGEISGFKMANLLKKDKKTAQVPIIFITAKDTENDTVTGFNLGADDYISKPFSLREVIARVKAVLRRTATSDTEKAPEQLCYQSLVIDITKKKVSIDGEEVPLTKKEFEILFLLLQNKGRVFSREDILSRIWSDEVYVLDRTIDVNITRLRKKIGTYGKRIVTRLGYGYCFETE
Assay: EMSA
Settings: EMSA: 50 mM Tris-HCl pH 7.5, 50 mM KCl, 10 mM MgCl2, 0.5 mM EDTA, 30 min at 25 C; 5% polyacrylamide gel. PS B and PS E promoter fragments (S55/S56, S57/S58 …)

**Q.** How did the binding turn out when “GGAATGGCTGGTAATCAAGTGCCTTGACTGCATCTGCATTGGCTTCTCCGTATTGAAATGATGGAGCAGCATAAGTGACTTGGCATTGAACTCCTGTAACATAATCCGGATTTTCTCCATTAAGATTATATTTAAGAGGTACGTTGGACGATGTGAAGATTAACGACGTCAACGAAGTAGTACCTGTTCCACCGAAAATATTGCCGGTAGCATAAGGTACTTCTATATCGTCGTTATCCGATGCCACTTTGATAAACTTAATATCGATGCGTGATACAATGCGTTCCAGA (double strand) [BF3397 internal fragment]” was run?
**A.** no binding
